Measured values from the DeepSol protein solubility set.

experiment: soluble on expression in E. coli; label from the status in PepcDB or PDB records

Soluble on expression in E. coli, not soluble:
MGSDKIHHHHHHMKDEVLIYSWVGEENIGDELILKSIVRMIEKIDDRLKVNVMGTKPKVINKIHNHLGLNRISTYINWTLKSILRAILKHNIFKAILNILCSNKLIIASGGALSDWNPSSTKTIFFLIDLFYFMNRPICMMGVGAGPILHEKSKKRFYNKLKKLEVITVRDEESYELLKSIGLKNVILTSDSVFNICSIIQNKYPEKDVTEKKISFVLAKLFKDNTKELKEYKEEIIKTINRLKKENWKIKLVPFHYSEDIGFLKSINQKCNVEILNSHDMYDTIGELNNENIIVGMRYHSVIMSLVLGKKVIPLIYHPKVYSVARRFEILDIAENVGNGGNWIGSNISSERLLKNIEKLYKSDENTAKNRGKVLRIVKQNDLNNEILARFLRHSNVLEVVSYNVQRH
MGSDKIHHHHHHMKELVNILDFLPEELGEKIKPMFRVKQIYQWIYQKYANNFSDMSSLPKDLRLELARNFHFSPVKCVKNEQSKDGSIKYLFELIDGLRVESVLLPMKEEKIDAEGKRISHARYTICVSSQVGCKSGCSFCLTAKGGLKRNLSAGEIVGQILWIKKQNNIPYERRVNIVYMGMGEPLDNLKNVSKAVKILAQNEGLAISPRRQTISTSGLAKQIKELGQMNLGVLLAISLHAVNDELRTELMPINKAYNIAAIMDAVREFPIDQRKRVMFEYLLIDGINDKLEHAKELVKLLNGIKAKVNLILFNPHEGSLYKRPSLENAIKFQDLLSNKGVTCTIRESKGLDISAACGQLKERAKEQ
MGSDKIHHHHHHMKENIEKLFQAIAQKNPIHSKYLKKIEFSQEDEEEFDKLISYYIQDGISIKEQCDCYLLILNDTLEETKFFIENGAYRYSSFDEVKDKVYFNESYMKQYMIGLALSSFVWIAHIKVRKYFSQYLQNFTPKTTYFEIGPGHGEYFARAVKSGKFSAFYGLDISPTSCELTQKMVKQQVGGLITKCDFLCQDFFTYDFDKKADLIVIGEVLEHVEKPLEFLKRSKELLSDGGEIFATIPINAPAIDHIYLFSHPDEVKDLIEKSGLKFKAYECFMANDYSLEKALKFKNAITMAVVLNA
MGSDKIHHHHHHMKEVAIYIYMLAVKITGCLARIFPVKQKVVLLVSFPENSTAIIKQMNEMKVTPKTVVFYDPRVDVTGFNFDFIQLKPKKIKHFISLMFHLNTAKVVITDNYFVELAGLKERKNVTCIQIWHANGALKKFGWEDKAAQKRSARDKKRFQEVYRCFSKVLVGSDEMAAIFQRSFLLEDSHMLKLGIPRTDNFFNQQQLKENAERTNTKLHLSNKKKLLYAPTFRDEELHSTTLHLDIAKMKQALGNEYQLILKLHPSISNDLDEVVDDFVVYADKETPIETILPAVDILITDYSSIPFEFALLEKPMIFFTYDLEEYDKARGLSDGFLATIPGPFVHTTEELIQLIEQEAFDLEMVRAFAAKWNKYSDGHSSERFVSFLKEQLEK
MGSDKIHHHHHHMKFFNREKEIHKILSIIEGEPNLIYFIYGSINSGKTALINEIINNRLDKNKYIVFYFDLREIFISKYDDFIEVLFEEYEGDKSPIEVIKAIINDLPSLYGIPIPKNTLNEIFKKKTTKNVFRYITNVLMDIKREGKQPIIIIDELQKIGDMKINGFLIYELFNYFVSLTKHKHLCHVFCLSSDSLFIERVYNEAMLEDRVDYILVDDHRGGYAPSIGILPQIESGVAFGNPALEYSNRGFASMRGEYILVDDFDKETALKFMDFLAKENNMSLTNEDKELIYNYVGGKPVLIIKVIDKLRYENLNDILDFMLKDATQKLKYFLEDVKEEDEELYKKVVDALKLFKEDYEIEDIKIPKKIREFLIKRNILFLNPIEGILKPQSFLVWNAIKKVL
MGSDKIHHHHHHMKFIHTSDWHIGRQLHNQSLLDDQAFVLEQIIALADEHKVDAVIVAGDIYDRSIPPANAVALLDDVLNRLVHDLGLQVIMIAGNHDGHERLGFAAKQMAASGLHIIGPLSADIHPITLSSSSGDVVFYPLPYAEPATVRQVFECEAASHEAAMTLLLEQVRQHDSQGLPKVVISHCFLDGGSESESERPLSIGGADKISPTLFTEFDYVALGHLHGPQYKGAEHVRYSGSILKYSFSEQHQHKSVTLVELSAQTPIKIRLLPLTSIRDVRILEGELATLLVQGKTDIKREDYLMVRLLDKHAILDAMGKLRAVYPNVLHLERTGLMAGQQQVTLSRDHIKKGEMDMFRDFFSQVSGESLTQAQQAVMDELLTKLHNEERQA
MGSDKIHHHHHHMKFVQKIYYFLFKLVGFLPRRKELVMFESFSGKQYSCNPRAIFEYMEEHNPEYELLWSVNPKYVDLFEAHGVPYVKRFSVNWLFKMGLAKFWISNSRLPLELPKPKKTIYVQTWHGTPLKKLGVDIDEVHMPGQTTEQYKADFVKEAQKWDYLISPNAYSSTIFRRAFGFTGEMIESGYPRNDILFSADKELKIANIKMALNIPEDKKVILYAPTWRDNDFYEIGKYKFDLKIDIAKMQEKFGDEVVLLVRMHYLVAEHFDFTQYGDFVRDASKHEDIRDLYLVSDLLITDYSSVFFDYANLKRPMLFYTYDLAEYRDTLRGFYFDFEQNAPGPLVEMNDALMAEIEIMLENPPQIAESFLEQFCTWEDGHAAEKTVKKVFAEK
MGSDKIHHHHHHMKGMEEVVIDAKDMHYRELNEKIHEILRENPDIKKIVLKNVLGQRFIADGIQKKDLTIEIYGIPGGDLGMFMSGPTIIVHGNAEFAPGNTMDDGTIVIYGSSGDVTAHSMRGGKVFVRGDVGYRSGIHMKAYKDKVPVLVIGGRAKDFLGEYMAGGIIIVLNIDEKGNDLGKVKGRMIGTGIHGGAIYIRGEIDKDQLGVAADIKEFTEEDLEKIKPYIEEFCKWFNLPEDVKNKLLNSKWTKIAPISKRPFGKLYTPDLM
MGSDKIHHHHHHMKIAIITDGSVEMGMGHVYRTLSLANELRKFNVNEIIFFTKSDEDVIKKIEENGFKVIKCSDNNDILKNIKNIKPDVVIIDDLGIEEDFAKNIRELCKKLIFFDNPNPSSNKYADIVVNAIVGSELKNRKYFDEENKTLYFYGPKYLILRNEFYKVKKEMLSRSKNKETKNILIAFGGSDPSNLTCKVLEELLSKDRDFNINVVLGPKFQYEDELNNLLKRYSKSDKIKIYKNIDNMAELMKDNDLIITSPGMTMFEALFLGIPVVVLYQNELQRECYDDYLKKISKTHLNPLKEGYFIDAEHTDLHIGKGKFEIIEAITNIYNCKKIGEDSKIIIRQITDNDLELLMAWRSNPLIYKFFYIQKEPLKWEEHYSWWMSRENRVDWIILLRENNTIRKVGSVNVSQLNTDNPEIGILIGEFFLWGKHIGRHSVSLVLKWLKNIGYKKAHARILENNIRSIKLFESLGFKKTKKGRENEWIYEVNL
MGSDKIHHHHHHMKIAIVGGPTAVGKTDIMIEVCEEIGAEIISMDSRQIYRYMDIGTAKPTPEQRKRVLHHMIDIIDPDEYYNAFMYRKDSLRAMEDVLRRGKIPVYVGGTGLYADALVRGIFEGVPADENIRKELRELERREPGILRKMLEELDPEAATRIHPNDLKRTIRALEVYMKTGRRISELQKEAKGDDRFFIIVLTRERYELYERINKRVDKMIEMGLVDEVKRLLGMGYSKDLNSMKTIGYKEVIDYLEGKYDFDKMVHLIKRNTRHFARRQIIWFKRYKEAVWYNLTFEDVGEVKEKLKKLIVENFSV
MGSDKIHHHHHHMKIGFIGTGNMGTILIESFIESKAADPSNMTITNRTIEKALHIKNRYNSINVTESLEKLVSENEMIFICVKPLDIYPLLARALPYLRKDHILISITSPVQTEQLEQYVPCQVARVIPSITNRALAGVSLVTFGTSCGESAKAKINELMQHISHPLQIESDITRVASDIVSCGPAFMSYLIQRFIDAAVSETSVSKQDAILMCKEMLVGMGKLLETELYTLPALQEKVCVKGGVTGEGIKALESGVQDMFHRVFQNTHMKYEEDISAVKKQFHV
MGSDKIHHHHHHMKIGFVGAGVGTLHAALLLTKRYPEVEITIFEKESRAGGRLASVDFETGGRIDQGPTIVLMPGKLQEQLREAGLEGVELERIDPLYDLHFDDGTIVTKQADVVDQTIAIERQFGEGRGFQEFMQQKAKDYDVSVSKFLERTYSRKRDLLHPDMLAPLVKMHAMETAHDHLKRFFKSKHLRMAYSFPTFYIGGNPYTTPSIYGLIPYREQEEGVWYVKGGYFSLAERMYEALVERGVTFKFNQPVDRVLIQQGQTKGLVAAGQEYVYDTVVLNGEFPLMEYLVEGKQPKKYVPSGGTLLLYFKIDGKVDLPVHRFLMPSDLKPLMTSIFKKNELPENPAVYLFNPSKIDDALTASGTSVVYALVPSPRGFDQANYEAHGFIDQILDKIEQHLPGFQSQVTEMKIRTPQDAQDFGLYEGGSFGIAPTIRQSAALKTQAKPYADIERLYAVGASVHPCGGVPIVMMGATLLVNRMEQEMRWKNGYSDERISSM
MGSDKIHHHHHHMKIIHIVESSATGTLSMVCLIANRLAREGHDVHVIYSVRPDTPPALAAMFDTRVSLRHVQMKGAGLLRIAGRLRATLNEIGPDVVHLHSSFAGFLGRLSTLFALPKAAFFYSPHCISFMRRDISGVKRMAFIGLEWIACVRKCLYVACSESEGHAIRAWLRQPVVVVENAVSDTRSPQRSGDAERLADGPPCVVTVGGIRAQKNPELFARIAHGMRARGTRFVWIGDGDAAEKARLAEAGVEVTGWLPRDEVVRRLERADVYLSTSSWEGMPVSVIEAMLAGRPVIVSDCAGNVDVVRHLQTGLIYTTASDAIAWLERLAGDDALRRELARRASREARQRFGEERLFGELAPLYAASVAR
MGSDKIHHHHHHMKILITGATGFVGRRLVKSLSEHQLIILTRNINNAKNNLGSHHQYWQTLTDKSDLNDIDAVINLAGEPIVNKRWSNKQKKLICDSRWDITAALTQLISKSTTPPHTFISASAVGYYGRQDQNPVDETSGFHAEFSHDICQKWEDLALQAQSQQTRVCITRIGIVLGKNGGALAKMLPPFKLGLGGPIGSGEQGMSWIHVDDLISLMAYLLSNTDLQGIFNATAPQPVSNAKFAKALGNALNRPAKITTPPLALRLAMGEMSELLTTGQFVLPKRTLAAGFEFKYSDINSALDHITHSAN
MGSDKIHHHHHHMKIMSIELGKFNQLEVVKQVDFGMYLDGGEEGEILLPTRYVPEDCKLGDWLNVFLYLDNEERLIATTLTPLVQVGEFACLEVSWVNQFGAFLNWGLMKDLFVPFSEQKMKMQVGNKYVIHAHIDDESFRIVASAKVDRYLSKEKASYQPGEEVNILIWQKTDLGFKAIIENMYSGLLYDSEIFQTLHTGDVLKAYVKQVREDGKIDLILQKPGFEKIDDFSKTLHRYITEHGGWIGLTDKSPAEEIYDTFGVSKKTFKKAVGDLYKKRLILLHEDGIELVRP
MGSDKIHHHHHHMKIRLTQLQCSSSSVTVDINDWVIEPQQSWGVFSTEGDVGALLGQLLTQQIDAQTLTYSGDIIGVTPASVALVSLLEQQSLLEAILEQDDSESLGYTDPKTTVFGVVFNQCHDNDLTHQLLQQLDLTHLSLSPFAQLSTGEGRRVMLARAVATQVPFLVLDEPYAGLDVAHRQTLTEYLQQLSQTKQILVVVSREEDMPDWIEHVAMFSHGKLDTMMTKSQWDNHPVIAQLTAQAGQQSDDILALIRRHRHKPLFANPVFQLNNGRVAYSDKVIFSGVNWRIDNGVHWQVKGPNGCGKSTLLGLIFGDHPQCYSNDIDIFGNKRGSGESIWEIKKHIGMVSSALHLQYRVNCSALDVIVSGFYDSIGLYQKPTAQQISVATEWLAILHMGHLSKTAFRQLEYGQQRLLLIARAIVKQPTLLILDEPYQGLDYLGRRLIKNALELIAKEHLSQLLYVSHYQEDSLDSIQHYIEFVKDENQDGYRAVVSQG
